T1: mfGITR.mmh (Macaca fasicularis)
T1 construct: soluble monomeric construct; also called Macaca fasicularis (mf) GITR.mmh; cynomolgus GITR protein
T1 chain: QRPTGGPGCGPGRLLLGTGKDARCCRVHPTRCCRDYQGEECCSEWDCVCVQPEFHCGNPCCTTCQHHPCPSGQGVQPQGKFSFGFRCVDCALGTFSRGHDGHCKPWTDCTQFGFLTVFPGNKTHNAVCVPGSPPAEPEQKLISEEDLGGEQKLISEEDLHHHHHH

T2: hGITR.mFc (human)
T2 construct: soluble dimeric construct with mouse Fc; also called dimeric human GITR
T2 chain: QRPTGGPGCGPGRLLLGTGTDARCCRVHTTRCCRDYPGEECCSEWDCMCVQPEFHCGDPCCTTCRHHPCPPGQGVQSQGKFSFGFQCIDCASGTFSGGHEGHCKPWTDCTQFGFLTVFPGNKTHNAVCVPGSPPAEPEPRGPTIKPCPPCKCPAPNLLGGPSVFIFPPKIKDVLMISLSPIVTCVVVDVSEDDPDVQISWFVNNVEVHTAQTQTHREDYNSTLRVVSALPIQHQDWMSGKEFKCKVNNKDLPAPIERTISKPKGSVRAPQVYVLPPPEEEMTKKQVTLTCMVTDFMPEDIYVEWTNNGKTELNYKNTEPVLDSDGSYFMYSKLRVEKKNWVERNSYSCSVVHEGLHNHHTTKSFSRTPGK

T3: hGITR.mmh (human)
T3 construct: soluble monomeric construct; also called human (h) GITR.mmh; monomeric human GITR
T3 chain: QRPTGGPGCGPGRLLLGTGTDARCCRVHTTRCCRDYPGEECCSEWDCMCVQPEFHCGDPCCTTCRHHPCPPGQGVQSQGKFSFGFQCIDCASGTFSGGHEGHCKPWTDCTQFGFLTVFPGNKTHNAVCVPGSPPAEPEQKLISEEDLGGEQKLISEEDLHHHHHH

T4: human GITR (amino acids M1-V241, NCBI Accession #NP_004186.1) expressed on cells (human, UniProt Q9Y5U5 26-241)
T4 construct: also called hGITR; hGITR/HEK293-D9
T4 sequence: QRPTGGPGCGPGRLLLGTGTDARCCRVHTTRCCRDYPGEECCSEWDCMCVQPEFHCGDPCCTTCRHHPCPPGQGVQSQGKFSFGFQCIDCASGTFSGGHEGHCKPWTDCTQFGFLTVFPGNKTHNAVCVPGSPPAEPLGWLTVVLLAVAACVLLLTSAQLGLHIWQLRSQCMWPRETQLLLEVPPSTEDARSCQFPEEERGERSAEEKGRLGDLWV

B1: H1H14474P (antibody, human IgG1, V domains shown)
VH: QVQLVESGGGVVQPGRSLRLSCAASGFTFSSYGMDWVRQAPGKGLEWVAVIWYPGSNKYYADSVKGRFTVSRDNSKNTLYLQMNSLRAEDTAVYYCARDGELGLDYYSGMDVWGQGTTVTVSS
VL: DIQMTQSPSSLSASVGDRVTITCRASQGIRNDLNWYQQKPGKAPKRLINGASSLQSGVPSRFSGSGSGTEFTLTISSLQPEDFATYYCLQLNSYPRTFGQGTKVEIK
notes: human IgG1 (H1H)
B2: H1H14523P (antibody, human IgG1, V domains shown)
VH: QVQLVESGGGVVQPGRSLRLSCEASGFTFSSYGMHWVRQAPGKGLEWVAVIWYSESNKYYTDSMKGRLTISRDNSKNTLYLQMNSLRAEDTAVYYCARGGLLGKYYYYGMDVWGQGTTVTVSS
VL: B1 VL with T20I, G28D, N34G, N49Y, G50A, Y86F, R96Y, V104L
notes: human IgG1 (H1H)
B3: H1H14524P (antibody, human IgG1, V domains shown)
VH: QVQLVESGGGVAQPGRSLSLSCAASGFTFSDYGMHWVRQAPGKGLEWVAVIWYAGSNKYYADSVKDRFTISRDNSKNTLYLQMRSLRVEDTAVYYCARGGELRLDYYSGLDVWGQGTTVTVSS
VL: B1 VL with I21V, N31S, N34G, N49Y, G50A, L54F, Q79H, L91S, S93N, R96W
notes: human IgG1 (H1H)
B4: H1H14503P (antibody, human IgG1, V domains shown)
VH: QVQLVESGGGVVQPGRSLRLSCEASGFTFSNYGFHWVRQAPGKGLDWVAVIWYAGSNKFYVDSVQGRFTISRDNSKQILFLQMNSLRAEDSAVYYCVRGGILGIDYYSGMDVWGQGTTVTVSS
VL: AIQMTQSPSSLSASVGDRVTITCRASQDIRNDLGWYQQRPGKAPKFLIYSTSSLQSGVPSRFSGSGSGTDFILTISSLQPEDFATYYCLQSHNYPWTFGHGTKVEIK
notes: human IgG1 (H1H)
B5: H1H14495P (antibody, human IgG1, V domains shown)
VH: QVQLVESGGGAVQPGTSLRLSCAASGFTFSSFGMHWVRQAPGKGLEWVSVIWYEGSNKYYADSVKGRFTISRDNSRNTLSLQMDSLRVEDTAVYYCARGGELGVNYYYDMDVWGQGTTVTVSS
VL: DIQMTQSPSSLSASVGDRVTITCRASQDIKNDLGWFQQKAGKAPKRLFYATSSLQSGVPSRFSGSGSGTEFTLTISSLQPEDFATYYCLQVHSYPRTFGQGTKVEIK
notes: human IgG1 (H1H)
B6: H4H14530P (antibody, human IgG4, V domains shown)
VH: QLQLQESGPGLVKPSETLSLTCTVSGGSISSTNHYWGWIRQPPGKGLEWIGNVYYIGNAYYNPSLKTGVTFSVDTSKNQFSLNLRSVTAADTAMYYCARLSNWNFLDLWGQGTLVTVSS
VL: EIVMTQSPATLSVSPGERATLSCRASQSISSNLAWYQQKPGQAPRLLIYGASTRATGIPARFSGSGSGTEFTLTISSLQSEDFAVYYCQQFNNWLSFGGGTKVEIK
notes: human IgG4 (H4H)

The values below come from patent US20170355774A1 (Regeneron, published 2017).

Changes are numbered by the printed parent chain. In names and notes the source's numbering stands.

The target of the first experiment is T1, mfGITR.mmh. In words: SPR 37C, mAb capture. As to the method:
(§1) (Table 3). […] GITR proteins were injected over the sensor surface at a flow rate of 30 μL/minute. All Biacore binding studies were performed in a buffer composed of 0.01M HEPES pH 7.4, 0.15M NaCl, 3 mM EDTA, 0.05% v/v Surfactant P20 (HBS-ET running buffer). Antibody-reagent association was monitored for 4 minutes while dissociation in HBS-ET running buffer (10 mM HEPES, 150 mM NaCl, 3 mM EDTA, 0.05% (v/v) Surfactant P20, pH 7.4) was monitored for 10 minutes. Kinetic association (kₐ) and dissociation (kd) rate constants were determined by fitting the real-time sensorgrams to a 1:1 binding model using Scrubber 2.0c curve fitting software. Binding dissociation equilibrium constants (KD) and dissociative half-lives (t ½) were calculated from the kinetic rate constants as: KD [M]=kd/kₐ; and t_{1/2}(min)=(ln 2/(60*kd). Results are summarized in Table 3.
Usually Kd stands for the concentration at which binding is half-saturated. Higher therefore signals weaker binding. For orientation: koff means the rate constant with which the complex falls apart. Higher therefore signals a short-lived complex. As a reminder, the kon is a measure of how fast the partners come together. The t½ is the time needed for the level to fall by half in the phase considered. Read a high t½ as slow decline. B1 registered a Kd of 28 nM, a koff of 0.00951 s⁻¹, an on-rate constant (kon) of 339000 M⁻¹ s⁻¹ and a t½ of 1.2 min.

In the case of B2, the affinity, expressed as Kd, was 88.5 nM; the koff was found to be 0.0109 s⁻¹; the kon was found to be 123000 M⁻¹ s⁻¹; the t½ worked out at 1.1 min.

On to B3, for which the Kd was determined as 158 nM, the dissociation rate constant (koff) worked out at 0.0189 s⁻¹, the on-rate (kon) worked out at 120000 M⁻¹ s⁻¹ and the t½ is 0.6 min.

Consider B4, for which the affinity, expressed as Kd, was 20.9 nM; the dissociation rate constant (koff) was determined as 0.0056 s⁻¹; the association rate constant (kon) stood at 268000 M⁻¹ s⁻¹; the t½ came to 2.1 min.

B5: binding was characterised by a dissociation constant (Kd) of 24.5 nM, the koff was 0.00723 s⁻¹, the on-rate (kon) worked out at 296000 M⁻¹ s⁻¹ and the t½ is 1.6 min.

In turn, B6 showed a Kd of 2.55 nM, a koff of 0.000611 s⁻¹, a kon of 240000 M⁻¹ s⁻¹ and a t½ of 18.9 min.

The target in another experiment is T2, hGITR.mFc. Briefly: SPR 37C, mAb capture. On the procedure:
as §1
Molecule B1 returned a Kd of 0.107 nM, a koff of 0.00013 s⁻¹, an on-rate constant (kon) of 1.21e+06 M⁻¹ s⁻¹ and a t½ of 89.2 min.

B2 gave a Kd of 0.216 nM, a koff of 0.00012 s⁻¹, a kon of 555000 M⁻¹ s⁻¹ and a t½ of 96.3 min.

Consider B3, for which the Kd was determined as 0.146 nM, the koff was determined as 0.000135 s⁻¹, the kon is 922000 M⁻¹ s⁻¹ and the t½ worked out at 85.6 min.

In the case of B4, the Kd came out at 0.137 nM, the koff stood at 0.000154 s⁻¹, the kon came to 1.12e+06 M⁻¹ s⁻¹ and the t½ was 75 min.

As for B5, the dissociation constant (Kd) is 0.0968 nM, the koff was 0.00011 s⁻¹, the association rate constant (kon) came out at 1.14e+06 M⁻¹ s⁻¹ and the t½ was found to be 105 min.

Turning to B6, the Kd is 0.63 nM, the koff was found to be 0.000185 s⁻¹, the kon was determined as 293000 M⁻¹ s⁻¹ and the t½ stood at 62.6 min.

A further experiment addresses T3, hGITR.mmh. In words: SPR 37C, mAb capture. On the procedure: as §1
As for B1, the affinity, expressed as Kd, was 1.96 nM; the off-rate constant (koff) is 0.00116 s⁻¹; the kon was 591000 M⁻¹ s⁻¹; the t½ came out at 9.9 min.

On to B2, for which the dissociation constant Kd was 8.63 nM, the off-rate constant (koff) came to 0.00186 s⁻¹, the association rate constant (kon) stood at 216000 M⁻¹ s⁻¹ and the t½ amounted to 6.2 min.

B3 registered a Kd of 3.62 nM, a koff of 0.00147 s⁻¹, a kon of 405000 M⁻¹ s⁻¹ and a t½ of 7.9 min.

Regarding B4, the dissociation constant (Kd) was 1.39 nM, the off-rate constant (koff) amounted to 0.000739 s⁻¹, the kon amounted to 532000 M⁻¹ s⁻¹ and the t½ came out at 15.6 min.

Molecule B5 returned a Kd of 2.45 nM, an off-rate (koff) of 0.00127 s⁻¹, a kon of 517000 M⁻¹ s⁻¹ and a t½ of 9.1 min.

For the molecule B6, binding was put at a Kd of 5.06 nM, the koff came out at 0.00138 s⁻¹, the on-rate constant (kon) came out at 272000 M⁻¹ s⁻¹ and the t½ came out at 8.4 min.

In the next experiment the target is T4, human GITR (amino acids M1-V241, NCBI …). In words: ECL cell binding, hGITR/HEK293-D9. As to the method: Nonspecific binding sites were blocked with 2% BSA (w/v)+PBS for 1 h at room temperature (RT). Next, serial dilutions of anti-GITR antibodies, ranging from 1.7 pM to 100 nM, were added to cells for 1 h at RT. Plates were then washed to remove unbound antibodies (AquaMax2000 plate washer, MSD Analytical Technologies) and plate-bound antibodies were detected with a SULFO-TAG™ conjugated anti-human kappa light chain IgG antibody (Jackson Immunoresearch) for 1 h at RT.
Following washes, luminescent signals were recorded with a SECTOR Imager 6000 (MSD) instrument. Direct binding signals (relative light units, RLU) were analyzed as a function of the antibody concentration and data were fitted with a sigmoidal (four-parameter logistic) dose-response model using GraphPad Prism™ software. […] The signal detected with 100 nM antibody binding to the hGITR expressing cells versus parental cells was recorded as an indication of intensity and specificity of GITR binding.
Broadly, the EC50 is the concentration that produces a half-maximal response. Low values mean greater potency, high ones weaker potency. As for B1, the “Average Signal (RLU) at 100 nM” value was found to be 6230 RLU and the response was half-maximal at 0.28 nM (EC50).

Consider B2, for which the “Average Signal (RLU) at 100 nM” value came out at 6350 RLU and the EC50 worked out at 0.4 nM.

With B3, the “Average Signal (RLU) at 100 nM” value stood at 5740 RLU and it took 0.21 nM to reach a half-maximal effect (EC50).

Consider B4, for which the “Average Signal (RLU) at 100 nM” value came out at 5880 RLU and the response was half-maximal at 0.21 nM (EC50).

For the molecule B5, the “Average Signal (RLU) at 100 nM” value was determined as 6470 RLU and the EC50 came out at 0.43 nM.

As to B6, the “Average Signal (RLU) at 100 nM” value was 4200 RLU and it took 85 nM to reach a half-maximal effect (EC50).

The next experiment has the same target. Briefly: cell-based or functional assay.
Regarding B1, the “% Activation, NF-kB-Luc, non-anchored” value is 30%; the “% Blocking, NF-kB-Luc, non-anchored” value is 80%; the “EC50, hGITR activation, NF-kB-Luc, non-anchored” value (from here on “EC50 … non-anchored”) was determined as 1.2 nM; the “IC50, blocking of hGITRL stimulation, NF-kB-Luc, non-anchored” value (from here on “IC50, blocking … non-anchored”) was determined as 0.8 nM.

Consider B2, for which the “% Activation, NF-kB-Luc, non-anchored” value came to 40%; the “% Blocking, NF-kB-Luc, non-anchored” value worked out at 70%; the “EC50 … non-anchored” value worked out at 2.5 nM; the “IC50, blocking … non-anchored” value worked out at 0.9 nM.

B3: the “% Activation, NF-kB-Luc, non-anchored” value came out at 40%; the “% Blocking, NF-kB-Luc, non-anchored” value came to 80%; the “EC50 … non-anchored” value is 2.2 nM; the “IC50, blocking … non-anchored” value came out at 0.7 nM.

B4: the “% Activation, NF-kB-Luc, non-anchored” value was determined as 50%; the “% Blocking, NF-kB-Luc, non-anchored” value was 90%; the “EC50 … non-anchored” value was found to be 1.4 nM; the “IC50, blocking … non-anchored” value was found to be 0.6 nM.

In the case of B5, the “% Activation, NF-kB-Luc, non-anchored” value is 30%; the “% Blocking, NF-kB-Luc, non-anchored” value is 80%; the “EC50 … non-anchored” value is 1.3 nM; the “IC50, blocking … non-anchored” value came out at 0.7 nM.
